Assay results from PMC5010959.
Where “and” joins values, the source holds several entries; their conditions need not be identical. Equal entries are not always repeated.

Columns and labels:
[1] = molecular target: T1, BoNT/A light chain (LCA) (Clostridium botulinum type A, UniProt P0DPI1 2-448)
[2] = molecular target: T1, BoNT/A light chain (LCA); experiment: SPR

T1 sequence (P0DPI1 2-448): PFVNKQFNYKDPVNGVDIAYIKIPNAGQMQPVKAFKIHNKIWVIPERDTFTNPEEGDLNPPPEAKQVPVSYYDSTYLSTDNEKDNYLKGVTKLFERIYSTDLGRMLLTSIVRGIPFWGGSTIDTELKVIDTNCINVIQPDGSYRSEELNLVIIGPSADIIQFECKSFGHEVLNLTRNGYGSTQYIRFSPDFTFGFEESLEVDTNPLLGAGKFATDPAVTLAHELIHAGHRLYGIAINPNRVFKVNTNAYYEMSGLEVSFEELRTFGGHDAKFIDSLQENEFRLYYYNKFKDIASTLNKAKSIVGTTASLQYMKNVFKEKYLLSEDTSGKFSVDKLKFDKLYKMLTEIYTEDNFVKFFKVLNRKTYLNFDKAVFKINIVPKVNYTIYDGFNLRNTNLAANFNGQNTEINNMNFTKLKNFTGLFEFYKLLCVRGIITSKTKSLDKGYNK

| Binder | IC50 [1] [nM] | Ki [1] | Kd [2] [nM] |
| --- | --- | --- | --- |
| TW1 2'-F modified (XNA, 2'-fluoro pyrimidines (C and U)) RNA: GGGUACCCACUCAGGUACGAUUGGUGCGAUAAACUAGACUCGUCAUGCGCAGUCUCCUACAGCUUUCUAGAAUUAAGCUUAGGC | 639 ± 13 | 433 nM and 720 nM | 31.4 ± 4.4 |
| TW1 unmodified (structured_RNA) RNA: GGGUACCCACUCAGGUACGAUUGGUGCGAUAAACUAGACUCGUCAUGCGCAGUCUCCUACAGCUUUCUAGAAUUAAGCUUAGGC | – | – | 109 ± 9.9 |
| TW3 2'-F modified (XNA, 2'-fluoro pyrimidines (C and U)) RNA: GGGUACCCACUCAGGUACGUGGGAAUUGAGCGGGUCACACUAUAAGCACGAGCCUUAGACAGCUUUCUAGAAUUAAGCUUAGGC | 727 ± 12 | 463 nM and 849 nM | 27.9 ± 4.3 |
| TW3 unmodified (structured_RNA) RNA: GGGUACCCACUCAGGUACGUGGGAAUUGAGCGGGUCACACUAUAAGCACGAGCCUUAGACAGCUUUCUAGAAUUAAGCUUAGGC | – | – | 59.1 ± 7.3 |
